Test results from doi:10.1101/2023.10.24.563710 (bioRxiv, 2023).

B1: ΔN-P116 (residues 246-818), truncated N-terminal domain and F-loop (domain or fragment, Mycoplasma pneumoniae, UniProt P75556 246-818, looked up)
chain: GVDVFEAQKNLVGKGKYLNTHVKAEDVKKDVNANIKNQFDIAKIIAELMGKALKEFGNQQEGQPLSFLKVMDKVKEDFEKLFNLVRPGLGKFVKDLIQSSSQAENKITVYKLIFDNKKTILNLLKELSIPELNSSLGLVDVLFDGITDSDGLYERLQSFKDLIVPAVKTNEKTAALSPLIEELLTQKDTYVFDLIQKHKGILTNLLKNFLADFQKSTPFMADQVAIFTELFDNEGAFDLFGEADFVDKIAELFLTKRTVKNGEKIETKDSLLVTSLKSLLGEKVAALGDLLDSYIFKNELLNRSVEVAKAEAKDTKGATDYKKEQAKALKKLFKHIGENTLSKTNLDKITLKEVKNTENVELEETETTLKVKKLDVEYKVELGNFEIKNGLIKAMLEFLPDTKDLETTLDKLLFKGESYKAMKDKYIKEGFPGYGWAKGVVPGAFESIENTFKSAIDKTKSIRDLFGDMLFGNDLSSVKETDSFITLGGSFDIKYGGENLNVLPAYYSLINSEIGYQIIGVDTTIDATKVKVELKNKEYKGKSPAINGQVKLSQSFFNVWTNMFDSITKQIFQ
B2: P116 ectodomain (residues 30-957), C-terminally shortened and HIS-tagged (domain or fragment, Mycoplasma pneumoniae, UniProt P75556 30-957, looked up)
chain: NKTHQVEHESEQSDFQDIRFGLNSVKLPKAQPAAATRITVENGTDKLVNYKSSPQQLFLAKNALKDKLQGEFDKFLSDAKAFPALTADLQEWVDQQLFNPNQSFFDLSAPRSNFTLSSDKKASLDFIFRFTNFTESVQLLKLPEGVSVVVDSKQSFDYYVNASAQKLLVLPLSLPDYTLGLNYMFDHITLNGKVVNKFSFNPFKTNLNLAFSNVYNGVDVFEAQKNLVGKGKYLNTHVKAEDVKKDVNANIKNQFDIAKIIAELMGKALKEFGNQQEGQPLSFLKVMDKVKEDFEKLFNLVRPGLGKFVKDLIQSSSQAENKITVYKLIFDNKKTILNLLKELSIPELNSSLGLVDVLFDGITDSDGLYERLQSFKDLIVPAVKTNEKTAALSPLIEELLTQKDTYVFDLIQKHKGILTNLLKNFLADFQKSTPFMADQVAIFTELFDNEGAFDLFGEADFVDKIAELFLTKRTVKNGEKIETKDSLLVTSLKSLLGEKVAALGDLLDSYIFKNELLNRSVEVAKAEAKDTKGATDYKKEQAKALKKLFKHIGENTLSKTNLDKITLKEVKNTENVELEETETTLKVKKLDVEYKVELGNFEIKNGLIKAMLEFLPDTKDLETTLDKLLFKGESYKAMKDKYIKEGFPGYGWAKGVVPGAFESIENTFKSAIDKTKSIRDLFGDMLFGNDLSSVKETDSFITLGGSFDIKYGGENLNVLPAYYSLINSEIGYQIIGVDTTIDATKVKVELKNKEYKGKSPAINGQVKLSQSFFNVWTNMFDSITKQIFQKKYEFKDNIQVFARNEDNTSRLELDISDPEQRVIPFAFVDGFGIQLKAVDKNITKEAGNTEPKSPVIQLYEALNKEKDQKQQSKQSPKQLDTKTQLGYLLKLGDNWSKDDYKSLIDDTIINNNYLEASFNSKITVDRLG

Biological target: the molecule itself
Assay: cryo-EM structure

Protein | stoichiometry N
B1 | 2
B2 | 2
